According to patent US20220227830A1, “QD DOSING OF GIP RECEPTOR AGONIST PEPTIDE COMPOUNDS AND USES THEREOF” (Takeda Pharmaceutical Company Limited, priority 2020, published 2022):
Starred links: 1 amine or outer side, 2 acyl side, 3 side chain; linkers in the order of their positions; H or OH if unused. Non-standard residues stand in square brackets, D forms with d. Groups on a side chain read outwards from the residue. No end group written: not given here. *: point of attachment. 2OEGgE‑C16DA = O=C(O)CCCCCCCCCCCCCCC(=O)N[C@@H](CCC(=O)NCCOCCOCC(=O)NCCOCCOCC(=O)*)C(=O)O; C15 diacid = O=C(O)CCCCCCCCCCCCCC(=O)*; γGlu = O=C(O)[C@H](CCC(=O)[*:2])N[*:1]; NMeY = CN[C@@H](Cc1ccc(O)cc1)C(=O)O; AEEA = NCCOCCOCC(=O)O; Aib = CC(C)(N)C(=O)O

T1: full-length human GIPR with an N-terminal FLAG tag (human, UniProt P48546 22-466)
T1 sequence (looked up): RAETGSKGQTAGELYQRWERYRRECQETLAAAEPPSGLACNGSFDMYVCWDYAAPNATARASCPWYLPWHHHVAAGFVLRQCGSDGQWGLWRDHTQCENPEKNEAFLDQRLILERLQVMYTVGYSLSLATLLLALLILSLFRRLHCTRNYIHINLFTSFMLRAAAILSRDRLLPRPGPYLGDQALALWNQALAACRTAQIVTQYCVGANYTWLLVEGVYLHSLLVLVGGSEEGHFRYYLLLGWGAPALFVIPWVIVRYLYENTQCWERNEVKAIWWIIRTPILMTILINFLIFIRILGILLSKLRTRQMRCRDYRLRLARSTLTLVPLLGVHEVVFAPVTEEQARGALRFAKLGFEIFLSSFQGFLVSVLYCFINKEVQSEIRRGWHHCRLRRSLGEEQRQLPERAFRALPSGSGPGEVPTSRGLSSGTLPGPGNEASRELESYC

B1: Compound 122 (peptide)
peptide: [NMeY][Aib]EGTFISDYSI[Aib]LDRKAQ[Aib]NFVNWLLAQRPSSGAPPPS-NH2
modifications: not fully specified (residue 17)
B2: Compound 116 (peptide)
peptide: [NMeY][Aib]EGTFISDYSI[Aib]K([AEEA-AEEA-γGlu-C15 diacid])DR[Aib]AQ[Aib]DFVNWLLAQRPSSGAPPPS-NH2
modifications: N-terminus assumed
SMILES: CC[C@H](C)[C@H](NC(=O)[C@H](Cc1ccccc1)NC(=O)[C@@H](NC(=O)CNC(=O)[C@H](CCC(=O)O)NC(=O)C(C)(C)NC(=O)[C@H](Cc1ccc(O)cc1)NC)[C@@H](C)O)C(=O)N[C@@H](CO)C(=O)N[C@@H](CC(=O)O)C(=O)N[C@@H](Cc1ccc(O)cc1)C(=O)N[C@@H](CO)C(=O)N[C@H](C(=O)NC(C)(C)C(=O)N[C@@H](CCCCNC(=O)COCCOCCNC(=O)COCCOCCNC(=O)CC[C@H](NC(=O)CCCCCCCCCCCCCC(=O)O)C(=O)O)C(=O)N[C@@H](CC(=O)O)C(=O)N[C@@H](CCCNC(=N)N)C(=O)NC(C)(C)C(=O)N[C@@H](C)C(=O)N[C@@H](CCC(N)=O)C(=O)NC(C)(C)C(=O)N[C@@H](CC(=O)O)C(=O)N[C@@H](Cc1ccccc1)C(=O)N[C@H](C(=O)N[C@@H](CC(N)=O)C(=O)N[C@@H](Cc1c[nH]c2ccccc12)C(=O)N[C@@H](CC(C)C)C(=O)N[C@@H](CC(C)C)C(=O)N[C@@H](C)C(=O)N[C@@H](CCC(N)=O)C(=O)N[C@@H](CCCNC(=N)N)C(=O)N1CCC[C@H]1C(=O)N[C@@H](CO)C(=O)N[C@@H](CO)C(=O)NCC(=O)N[C@@H](C)C(=O)N1CCC[C@H]1C(=O)N1CCC[C@H]1C(=O)N1CCC[C@H]1C(=O)N[C@@H](CO)C(N)=O)C(C)C)[C@@H](C)CC
B3: Compound 118 (peptide)
peptide: [NMeY][Aib]EGTFISDYSI[Aib]LDR[Aib]K([AEEA-AEEA-γGlu-C15 diacid])Q[Aib]DFVNWLLAQR-NH2
modifications: N-terminus assumed
SMILES: CC[C@H](C)[C@H](NC(=O)[C@H](Cc1ccccc1)NC(=O)[C@@H](NC(=O)CNC(=O)[C@H](CCC(=O)O)NC(=O)C(C)(C)NC(=O)[C@H](Cc1ccc(O)cc1)NC)[C@@H](C)O)C(=O)N[C@@H](CO)C(=O)N[C@@H](CC(=O)O)C(=O)N[C@@H](Cc1ccc(O)cc1)C(=O)N[C@@H](CO)C(=O)N[C@H](C(=O)NC(C)(C)C(=O)N[C@@H](CC(C)C)C(=O)N[C@@H](CC(=O)O)C(=O)N[C@@H](CCCNC(=N)N)C(=O)NC(C)(C)C(=O)N[C@@H](CCCCNC(=O)COCCOCCNC(=O)COCCOCCNC(=O)CC[C@H](NC(=O)CCCCCCCCCCCCCC(=O)O)C(=O)O)C(=O)N[C@@H](CCC(N)=O)C(=O)NC(C)(C)C(=O)N[C@@H](CC(=O)O)C(=O)N[C@@H](Cc1ccccc1)C(=O)N[C@H](C(=O)N[C@@H](CC(N)=O)C(=O)N[C@@H](Cc1c[nH]c2ccccc12)C(=O)N[C@@H](CC(C)C)C(=O)N[C@@H](CC(C)C)C(=O)N[C@@H](C)C(=O)N[C@@H](CCC(N)=O)C(=O)N[C@@H](CCCNC(=N)N)C(N)=O)C(C)C)[C@@H](C)CC
B4: Compound 123 (peptide)
peptide: [NMeY][Aib]EGTFISDYSI[Aib]LDR[Aib]AQ[Aib]NFVNWLLAQKPSSGAPPPS-NH2
modifications: not fully specified (residue 30)
B5: Compound 11 (peptide)
peptide: [NMeY][Aib]EGTFISDYSIAK(2OEGgE‑C16DA)DR[Aib]AQ[Aib]NFVNWLLAQK
B6: Compound 124 (peptide)
peptide: [NMeY][Aib]EGTFISDYSI[Aib]KDR[Aib]AQ[Aib]NFVNWLLAQRPSSKKKKKK-NH2
modifications: not fully specified (residue 14, N-terminus)
B7: Compound 117 (peptide)
peptide: [NMeY][Aib]EGTFISDYSI[Aib]LDR[Aib]KQ[Aib]DFVNWLLAQR-NH2
modifications: not fully specified (residue 18)
B8: Compound 125 (peptide)
peptide: [NMeY][Aib]EGTFISDYSIAK([Gly-Gly-Gly-Gly-Gly-γGlu-C15 diacid])DR[Aib]AQ[Aib]NFVNWLLAQSPSSGAPPPS-NH2
modifications: N-terminus assumed
SMILES: CC[C@H](C)[C@H](NC(=O)[C@H](CO)NC(=O)[C@H](Cc1ccc(O)cc1)NC(=O)[C@H](CC(=O)O)NC(=O)[C@H](CO)NC(=O)[C@@H](NC(=O)[C@H](Cc1ccccc1)NC(=O)[C@@H](NC(=O)CNC(=O)[C@H](CCC(=O)O)NC(=O)C(C)(C)NC(=O)[C@H](Cc1ccc(O)cc1)NC)[C@@H](C)O)[C@@H](C)CC)C(=O)N[C@@H](C)C(=O)N[C@@H](CCCCNC(=O)CNC(=O)CNC(=O)CNC(=O)CNC(=O)CNC(=O)CC[C@H](NC(=O)CCCCCCCCCCCCCC(=O)O)C(=O)O)C(=O)N[C@@H](CC(=O)O)C(=O)N[C@@H](CCCNC(=N)N)C(=O)NC(C)(C)C(=O)N[C@@H](C)C(=O)N[C@@H](CCC(N)=O)C(=O)NC(C)(C)C(=O)N[C@@H](CC(N)=O)C(=O)N[C@@H](Cc1ccccc1)C(=O)N[C@H](C(=O)N[C@@H](CC(N)=O)C(=O)N[C@@H](Cc1c[nH]c2ccccc12)C(=O)N[C@@H](CC(C)C)C(=O)N[C@@H](CC(C)C)C(=O)N[C@@H](C)C(=O)N[C@@H](CCC(N)=O)C(=O)N[C@@H](CO)C(=O)N1CCC[C@H]1C(=O)N[C@@H](CO)C(=O)N[C@@H](CO)C(=O)NCC(=O)N[C@@H](C)C(=O)N1CCC[C@H]1C(=O)N1CCC[C@H]1C(=O)N1CCC[C@H]1C(=O)N[C@@H](CO)C(N)=O)C(C)C
B9: Compound 121 (peptide)
peptide: [NMeY][Aib]EGTFISDYSIALDR[Aib]AQ[Aib]KFVNWLLAQR-NH2
modifications: not fully specified (residue 21)
B10: Compound 115 (peptide)
peptide: [NMeY][Aib]EGTFISDYSI[Aib]K([AEEA-γGlu-γGlu-γGlu-C15 diacid])DR[Aib]AQ[Aib]NFVNWLLAQR-NH2
modifications: N-terminus assumed
SMILES: CC[C@H](C)[C@H](NC(=O)[C@H](Cc1ccccc1)NC(=O)[C@@H](NC(=O)CNC(=O)[C@H](CCC(=O)O)NC(=O)C(C)(C)NC(=O)[C@H](Cc1ccc(O)cc1)NC)[C@@H](C)O)C(=O)N[C@@H](CO)C(=O)N[C@@H](CC(=O)O)C(=O)N[C@@H](Cc1ccc(O)cc1)C(=O)N[C@@H](CO)C(=O)N[C@H](C(=O)NC(C)(C)C(=O)N[C@@H](CCCCNC(=O)COCCOCCNC(=O)CC[C@H](NC(=O)CC[C@H](NC(=O)CC[C@H](NC(=O)CCCCCCCCCCCCCC(=O)O)C(=O)O)C(=O)O)C(=O)O)C(=O)N[C@@H](CC(=O)O)C(=O)N[C@@H](CCCNC(=N)N)C(=O)NC(C)(C)C(=O)N[C@@H](C)C(=O)N[C@@H](CCC(N)=O)C(=O)NC(C)(C)C(=O)N[C@@H](CC(N)=O)C(=O)N[C@@H](Cc1ccccc1)C(=O)N[C@H](C(=O)N[C@@H](CC(N)=O)C(=O)N[C@@H](Cc1c[nH]c2ccccc12)C(=O)N[C@@H](CC(C)C)C(=O)N[C@@H](CC(C)C)C(=O)N[C@@H](C)C(=O)N[C@@H](CCC(N)=O)C(=O)N[C@@H](CCCNC(=N)N)C(N)=O)C(C)C)[C@@H](C)CC
B11: Compound 119 (peptide)
peptide: [NMeY][Aib]EGTFISDYSIALDR[Aib]KQ[Aib]NFVNWLLAQSPSSGAPPPS-NH2
modifications: not fully specified (residue 18, N-terminus)
B12: Compound 126 (peptide)
peptide: [NMeY][Aib]EGTFISDYSIAK([Gly-Gly-Gly-Gly-Gly-γGlu-C15 diacid])DR[Aib]AQ[Aib]DFVNWLLAQRPSSGAPPPS-NH2
modifications: N-terminus assumed
SMILES: CC[C@H](C)[C@H](NC(=O)[C@H](CO)NC(=O)[C@H](Cc1ccc(O)cc1)NC(=O)[C@H](CC(=O)O)NC(=O)[C@H](CO)NC(=O)[C@@H](NC(=O)[C@H](Cc1ccccc1)NC(=O)[C@@H](NC(=O)CNC(=O)[C@H](CCC(=O)O)NC(=O)C(C)(C)NC(=O)[C@H](Cc1ccc(O)cc1)NC)[C@@H](C)O)[C@@H](C)CC)C(=O)N[C@@H](C)C(=O)N[C@@H](CCCCNC(=O)CNC(=O)CNC(=O)CNC(=O)CNC(=O)CNC(=O)CC[C@H](NC(=O)CCCCCCCCCCCCCC(=O)O)C(=O)O)C(=O)N[C@@H](CC(=O)O)C(=O)N[C@@H](CCCNC(=N)N)C(=O)NC(C)(C)C(=O)N[C@@H](C)C(=O)N[C@@H](CCC(N)=O)C(=O)NC(C)(C)C(=O)N[C@@H](CC(=O)O)C(=O)N[C@@H](Cc1ccccc1)C(=O)N[C@H](C(=O)N[C@@H](CC(N)=O)C(=O)N[C@@H](Cc1c[nH]c2ccccc12)C(=O)N[C@@H](CC(C)C)C(=O)N[C@@H](CC(C)C)C(=O)N[C@@H](C)C(=O)N[C@@H](CCC(N)=O)C(=O)N[C@@H](CCCNC(=N)N)C(=O)N1CCC[C@H]1C(=O)N[C@@H](CO)C(=O)N[C@@H](CO)C(=O)NCC(=O)N[C@@H](C)C(=O)N1CCC[C@H]1C(=O)N1CCC[C@H]1C(=O)N1CCC[C@H]1C(=O)N[C@@H](CO)C(N)=O)C(C)C

Assays:
[1] = molecular target: full-length human GLP-1R with an N-terminal FLAG tag (human, UniProt P43220 24-463); experiment: cell-based or functional assay
[2] = molecular target: T1, full-length human GIPR with an …; experiment: cell-based or functional assay

Binder | Human GLP1R cAMP HEK293T EC50 [1] | Human GIPR cAMP, HEK293T EC50 [2]
B1 | 20.4 nM | 0.4 pM
B2 | 339 nM | 0.3 pM
B3 | 525 nM | 0.9 pM
B4 | 22.9 nM | 0.4 pM
B5 | 145 nM | 0.3 pM
B6 | 126 nM | 4 pM
B7 | 1000 nM | 0.6 pM
B8 | 166 nM | 0.2 pM
B9 | 5.5 nM | 0.3 pM
B10 | 437 nM | 0.5 pM
B11 | 1000 nM | 0.5 pM
B12 | 589 nM | 0.2 pM
